From paper PMC2636890

Experiments:
[1] = molecular target: soluble recombinant form of HCV E2 glycoprotein (sE2), derived from H77-E2, harbouring a His-tag (UniProt P27958); experiment: flow cytometry on cells (sE2 binding); settings: BRL3A cells expressing only the indicated SR-BI mutant; sE2-containing medium vs. sE2-free medium; mean±SD, n = 3; parent: est. 100; read off a plot
[2] = molecular target: SR-BI-Short, a shorter isoform of SR-BI produced by alternative splicing that removes 100 amino acids of the ectodomain (human) (UniProt Q8WTV0)
Chain of UniProt Q8WTV0 (Q8WTV0 other isoform, or with tags, fused parts or gaps): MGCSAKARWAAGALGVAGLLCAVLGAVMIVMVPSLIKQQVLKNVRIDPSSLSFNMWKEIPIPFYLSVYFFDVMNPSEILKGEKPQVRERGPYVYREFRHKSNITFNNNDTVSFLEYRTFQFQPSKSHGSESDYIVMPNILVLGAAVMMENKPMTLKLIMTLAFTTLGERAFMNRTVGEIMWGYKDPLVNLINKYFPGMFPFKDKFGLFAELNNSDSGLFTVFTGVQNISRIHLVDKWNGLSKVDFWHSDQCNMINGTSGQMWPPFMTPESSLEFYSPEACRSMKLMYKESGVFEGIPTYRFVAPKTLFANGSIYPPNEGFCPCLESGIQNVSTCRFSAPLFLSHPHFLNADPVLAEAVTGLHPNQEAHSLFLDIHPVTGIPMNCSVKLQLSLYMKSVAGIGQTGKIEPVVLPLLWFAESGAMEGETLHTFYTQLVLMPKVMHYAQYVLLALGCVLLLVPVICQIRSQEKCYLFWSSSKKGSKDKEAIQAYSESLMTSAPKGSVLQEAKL

Substance | percent of parent (% of wt SR-BI (set to 100)) [1] | entry of HCVpp (H77 E1E2) into BRL3A-CD81-CLDN1 cells expressing the SR-BI form, fold reduction against wt SR-BI [2]
human scavenger receptor class B type I (SR-BI), wild type (from UniProt Q8WTV0-2) SES | 100 | 
soluble recombinant form of HCV E2 glycoprotein (sE2), derived from H77-E2, harbouring a His-tag (from UniProt P27958 384-661) (domain or fragment) |  | > 10 fold
